Test results from article PMC6317279.

Molecular target: FLAG-tagged CRTC3 S391A (mouse) (UniProt Q91X84)
UniProt Q91X84, sequence (Q91X84 whole entry S391A): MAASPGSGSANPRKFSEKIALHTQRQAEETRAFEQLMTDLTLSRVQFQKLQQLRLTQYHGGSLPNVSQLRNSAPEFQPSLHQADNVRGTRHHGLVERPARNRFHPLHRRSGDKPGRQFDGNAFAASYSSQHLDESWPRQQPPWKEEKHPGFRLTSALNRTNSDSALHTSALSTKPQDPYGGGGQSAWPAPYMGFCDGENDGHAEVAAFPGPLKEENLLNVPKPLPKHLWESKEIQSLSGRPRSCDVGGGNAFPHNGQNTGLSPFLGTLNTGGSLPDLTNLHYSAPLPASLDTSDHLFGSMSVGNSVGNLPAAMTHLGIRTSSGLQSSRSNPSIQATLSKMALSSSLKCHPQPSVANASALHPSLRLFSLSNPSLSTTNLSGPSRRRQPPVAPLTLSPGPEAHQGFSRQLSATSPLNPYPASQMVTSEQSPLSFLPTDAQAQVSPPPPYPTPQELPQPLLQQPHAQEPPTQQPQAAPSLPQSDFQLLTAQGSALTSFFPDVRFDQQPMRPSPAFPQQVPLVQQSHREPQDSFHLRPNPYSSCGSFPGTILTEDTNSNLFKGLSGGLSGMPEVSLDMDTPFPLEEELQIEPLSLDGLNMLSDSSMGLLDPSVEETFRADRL

## B55 PP2A holoenzyme (protein phosphatase 2A: catalytic, scaffold and 55-kDa regulatory B subunits) (from UniProt P67775 1-309; P30153 1-589; P63151 1-447) (complex)
  transient CRE luciferase-based (EVX-Luc) reporter assay, basal transcriptional activity of S391A mutant CRTC3 against WT CRTC3: 2 fold lower
